Assay [1] concerns the target T1, gp350 B95-8 (2-425) D296R/I160R Avi-His (Epstein Barr Virus (B95-8), UniProt P03200 2-425).
T1 construct: also called gp350 D296R/I160R probe
Nature of the assay: flow cytometry staining of IgG+ B cells in human PBMCs, co-stained with anti-CD21.

Assay [2] addresses T2, gp350 B95-8 (2-425) D296R Avi-His (Epstein Barr Virus (B95-8), UniProt P03200 2-425).
T2 construct: also called D296R gp350 probe; D296R mutant
The description is as above.

Assay [3] has as its target T1, gp350 B95-8 (2-425) D296R/I160R Avi-His. Nature of the assay: biolayer interferometry (Octet), CR2-Ig on protein A biosensors.
Assay [4] concerns the target gp350 B95-8 (2-425) D296R/P158R/I160R Avi-His (Epstein Barr Virus (B95-8), UniProt P03200 2-425). The assay is described as above.
For assay [5], the target named is gp350 B95-8 (2-425) D296R/P158R Avi-His (Epstein Barr Virus (B95-8), UniProt P03200 2-425). The description is as above.
Assay [6] has as its target T3, gp350 B95-8 (2-425) D296R/P158N*/I160T Avi-His (Epstein Barr Virus (B95-8), UniProt P03200 2-425).
T3 construct: also called D296R/P158N/I160T (glycan addition at 158)
The description is as above.

B1: CR2 (complement receptor 2, CD21) on IgG+ B cells of human PBMCs (receptor)
chain: ISCGSPPPILNGRISYYSTPIAVGTVIRYSCSGTFRLIGEKSLLCITKDKVDGTWDKPAPKCEYFNKYSSCPEPIVPGGYKIRGSTPYRHGDSVTFACKTNFSMNGNKSVWCQANNMWGPTRLPTCVSVFPLECPALPMIHNGHHTSENVGSIAPGLSVTYSCESGYLLVGEKIINCLSSGKWSAVPPTCEEARCKSLGRFPNGKVKEPPILRVGVTANFFCDEGYRLQGPPSSRCVIAGQGVAWTKMPVCEEIFCPSPPPILNGRHIGNSLANVSYGSIVTYTCDPDPEEGVNFILIGESTLRCTVDSQKTGTWSGPAPRCELSTSAVQCPHPQILRGRMVSGQKDRYTYNDTVIFACMFGFTLKGSKQIRCNAQGTWEPSAPVCEKECQAPPNILNGQKEDRHMVRFDPGTSIKYSCNPGYVLVGEESIQCTSEGVWTPPVPQCKVAACEATGRQLLTKPQHQFVRPDVNSSCGEGYKLSGSVYQECQGTIPWFMEIRLCKEITCPPPPVIYNGAHTGSSLEDFPYGTTVTYTCNPGPERGVEFSLIGESTIRCTSNDQERGTWSGPAPLCKLSLLAVQCSHVHIANGYKISGKEAPYFYNDTVTFKCYSGFTLKGSSQIRCKADNTWDPEIPVCEKETCQHVRQSLQELPAGSRVELVNTSCQDGYQLTGHAYQMCQDAENGIWFKKIPLCKVIHCHPPPVIVNGKHTGMMAENFLYGNEVSYECDQGFYLLGEKKLQCRSDSKGHGSWSGPSPQCLRSPPVTRCPNPEVKHGYKLNKTHSAYSHNDIVYVDCNPGFIMNGSRVIRCHTDNTWVPGVPTCIKKAFIGCPPPPKTPNGNHTGGNIARFSPGMSILYSCDQGYLLVGEALLLCTHEGTWSQPAPHCKEVNCSSPADMDGIQKGLEPRKMYQYGAVVTLECEDGYMLEGSPQSQCQSDHQWNPPLAVCRSRSLAPVLCGIAAGLILLTFLIVITLYVISKHRARNYYTDTSQKEAFHLEAREVYSVDPYNPAS
notes: whole, on cells; also called gp350 receptor
As to B1, the binding result was “no binding” in assay [1] and “binds” in assay [2].

B2: CR2-Ig (chimeric molecule of CR2 SCR1-2 domain and IgG Fc region) (Fc fusion)
chain: ISCGSPPPILNGRISYYSTPIAVGTVIRYSCSGTFRLIGEKSLLCITKDKVDGTWDKPAPKCEYFNKYSSCPEPIVPGGYKIRGSTPYRHGDSVTFACKTNFSMNGNKSVWCQANNMWGPTRLPTCVSVFPLE
notes: domain: SCR1-2; not shown: IgG Fc region
B2: the binding result in assay [3], in assay [4], in assay [5] and in assay [6] was “no binding” in each case.
